PMC7617670, “Activity Regulation of a Glutamine Amidotransferase Bienzyme Complex by Substrate-Induced Subunit Interface Expansion” (ACS catalysis, 2025)
Where a chain is given by its changes, count along the chain named. In names and notes the source's numbering stands.

How the values were obtained:
Assay in all cases: ITC; 250 μM PabB titrated into 25 μM PabA in the cell; 25 °C; 50 mM Tris/HCl pH 7.5, 50 mM KCl, 5 mM MgCl2; without Cho and Gln; one set of sites
Conditions in all cases: both partners purified
[1] = biological target: T1, PabB variant bY210F (Escherichia coli, UniProt P05041 1-453, bY210F)
T1 construct: PabB, synthase subunit of ADCS, E. coli; construct as m2 with one exchange; Made by QuikChange mutagenesis from the construct of m2; source: E. coli BL21-Gold (DE3), purified (Ni-IMAC, preparative gel filtration)
T1 sequence: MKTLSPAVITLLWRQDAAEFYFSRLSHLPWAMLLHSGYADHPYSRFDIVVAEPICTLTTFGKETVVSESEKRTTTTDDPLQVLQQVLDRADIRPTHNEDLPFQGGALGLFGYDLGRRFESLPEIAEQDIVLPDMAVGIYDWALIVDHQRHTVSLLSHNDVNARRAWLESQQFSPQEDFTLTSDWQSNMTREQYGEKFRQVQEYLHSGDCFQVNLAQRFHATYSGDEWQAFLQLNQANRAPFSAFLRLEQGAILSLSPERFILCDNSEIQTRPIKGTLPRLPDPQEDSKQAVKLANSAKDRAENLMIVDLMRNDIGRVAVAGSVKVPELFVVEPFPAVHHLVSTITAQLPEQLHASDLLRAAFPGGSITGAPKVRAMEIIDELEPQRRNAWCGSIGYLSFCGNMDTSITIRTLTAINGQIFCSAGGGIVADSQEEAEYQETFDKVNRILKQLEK

[2] = biological target: T2, PabB variant bE119R (Escherichia coli, UniProt P05041 1-453, bE119R)
T2 construct: PabB, synthase subunit of ADCS, E. coli; construct as m2 with one exchange; Made by QuikChange mutagenesis from the construct of m2; source: E. coli BL21-Gold (DE3), purified (Ni-IMAC, preparative gel filtration)
T2 sequence: T1 sequence with E119R, F210Y

[3] = biological target: T3, PabB variant bG207P (Escherichia coli, UniProt P05041 1-453, bG207P)
T3 construct: PabB, synthase subunit of ADCS, E. coli; construct as m2 with one exchange; Made by QuikChange mutagenesis from the construct of m2; source: E. coli BL21-Gold (DE3), purified (Ni-IMAC, preparative gel filtration)
T3 sequence: T1 sequence with G207P, F210Y

Kd [1]: 530 nM
Kd [2]: 540 nM
Kd [3]: 1700 nM
B1: PabA, glutaminase subunit of aminodeoxychorismate synthase (ADCS) from Escherichia coli, wild type (enzyme)
chain: MILLIDNYDSFTWNLYQYFCELGADVLVKRNDALTLADIDALKPQKIVISPGPCTPDEAGISLDVIRHYAGRLPILGVCLGHQAMAQAFGGKVVRAAKVMHGKTSPITHNGEGVFRGLANPLTVTRYHSLVVEPDSLPACFDVTAWSETREIMGIRHRQWDLEGVQFHPESILSEQGHQLLANFLHR
notes: PabA, class I glutaminase subunit of ADCS, E. coli; the gene was cloned into pET28a; Form used for SEC, ITC and kinetics; TEV cleavage is told only of the proteins used for crystallization; The G5H-Tag stands between the TEV site and the start methionine of PabA; also called wt PabA; ADCS glutaminase subunit; source: E. coli BL21-Gold (DE3), purified (Ni-IMAC, preparative gel filtration)
